In patent publication US9181310B2 (priority 2003, dated 2015):
Entries after “also recorded” stand apart in the source; their conditions may differ. Read-outs that look alike come from different tables or passages of the source. No end group written: not given here.

Tests used:
[1] = incubated with intercellular plant fluid of rice; cited from earlier work
[2] = incubated with intercellular plant fluid of potato; cited from earlier work
E. coli ER2566 [3] = type: cell-based
[4] = system: Ca. Liberibacter asiaticus; type: in vivo; details: transgenic tobacco Xanthi, same on retest three weeks later
[5] = system: X. pelargonii strain CHSC; details: in vivo
[6] = system: R. solanacearum strain Rsp673; type: in vivo; details: transgenic geranium Avenida
[7] = system: R. solanacearum strain Rsp446; type: in vivo; details: after 68 days
[8] = system: LPS of X. campestris pv. pelargonii, X. citri, Rhizobium leguminosarum and Ralstonia solanacearum; type: binding; details: treated LPS lanes, Western blot
[9] = system: Nicotiana tabaccum cv. Xanthi; assay: Stable transformation of tobacco, effect on the plant; details: stable transformation with pIPG786
[10] = system: rice (Oryza sativa japonica) cv. TP309; assay: Stable transformation of rice, effect on the plant; details: stable transformation with pIPG787
[11] = system: purified LPS extracted from X. campestris pv. pelargonii, X. citri, Rhizobium leguminosarum and Ralstonia solanacearum; type: biochemical; details: 5 ug purified protein, room temperature, 2 hours
[12] = system: X. pelargonii strain CHSC; assay: Pathogen challenge of transgenic geranium; type: in vivo
Procedure: Following inoculation, plants were held at 32° C. The circled region was cut out, and contained ca. 10^5 cfu/cm^2 live X. pelargonii cells (for details, refer Example 11 below). Photo taken four weeks after inoculation.
Following inoculation, plants were held at 32° C. […] Photo taken four weeks after inoculation.
Cell counts were taken daily for nine days by removing circular sections totaling 1 square centimeter (cm^2) using a cork borer from three inoculated leaves in the area most likely to contain pathogen cells (refer FIGS. 1 and 2). These leaf sections were macerated with a mortar and pestle and 1 milliliter of buffer, diluted using a 1:10 dilution series and 10 microliter drops placed on solid growth medium for counting. […] These plants were both immune to X. pelargonii infection, and rapidly brought the artificially inoculated pathogen population to extinction.
Inoculations were performed using liquid culture grown X. pelargonii cells, sprayed on the leaves at a concentration of 10^7 colony forming units per milliliter (cfu/ml) each. X. pelargonii was also inoculated using scissors dipped in 10^9 cfu/ml of cells to clip the leaves in several places on the same plants that were sprayed. Following X. pelargonii inoculation, plants were held at 32° C. to encourage pathogen growth and symptom development. Four weeks after inoculation, photographs were taken of both nontransgenic geranium variety “Avenida” inoculated with X. pelargonii (FIG. 1) and transgenic geranium of the same variety “Avenida” expressing BombBC inoculated with X. pelargonii (FIG. 2), and circular sections totaling 1 square centimeter (cm^2) were removed using a cork borer from three inoculated leaves in the area most likely to contain pathogen cells (refer FIGS. 1 and 2). Consistently, 10^5 cfu/ml of X. pelargonii was recovered from nontransgenic geranium variety “Avenida” plants at four weeks after inoculation (FIG. 3), and symptoms progressed systemically until the entire plant was dead, usually by 12 weeks after inoculation. […] These plants were immune to X. pelargonii infection.

X. pelargonii = details: in vivo
E. coli ER2566 [13] = type: cell-based; details: for bacterial stasis induced by expression: berberine chloride 250 ug/ml, 0.25 mM IPTG, 20 hrs of induction
R. solanacearum = type: in vivo; details: sweet pepper leaves, transient expression from pIPG780, 48 hrs after challenge
[14] = system: E. coli strains ADA410 P3rpoH::lacZ reporter (LPS or outer membrane damage); assay: P3rpoH::lacZ reporter, purified protein droplets on ADA410 cells on X-gal agar; details: ten microliter droplets of purified protein, 24 hr
[15] = system: geranium (Pelargonium X hortorum) cv. Avenida; assay: Stable transformation of geranium, effect on the plant; details: stable transformation with pIPG787
[16] = Exp. 1, cutting (T0), inoculum 5 × 10^7 cfu/ml
[17] = Exp. 2, cutting (T0), inoculum 1 × 10^8 cfu/ml

cecropin B: linear lytic peptide rapidly degraded by plant proteases (KWKVFKKIEKMGRNIRNGIVKAGPAIAVLGEAKAL; ends and bridges not checked; UniProt P01508 27-61, looked up)
half-life [1]: about 25 hours | half-life [2]: about three

B1: BombORF35PA: Phage PhiKMV ORF 35 from Pseudomonas aeruginosa, SEQ ID No. 9 (protein, listed as Pseudomonas aeruginosa)
chain: MAFWLPLLAAGGMSALQQGLANKEERNKIKAENKARLKTDLDNLGAAARDIANLGVMAASYRKQAVASQVEAKRQGMLAGGSAEAQAGAFGVKGASVDAVALDIEREVGEALIQIDDNLDNQMWNLAEQAHSIQAQAKAGLLGQKSTTAGQRSPLVAGLMSAGSLYASQYFKFGATPKGGN
activity of expression clone (growth in presence of berberine chloride) (E. coli ER2566 [3]): Active

B2: BombBC: Bacteriophage Outer Membrane Breaching protein of Xanthomonas phage P15 (Xp15) ORF BC, 17.9 kD, SEQ ID NO. 17 (protein, listed as Xanthomonas campestris)
chain: MSDQTDTTQTTPAEKAPPKEIIRGRMPIAVVALARFGSQSTTTTKAAADALGTTVGKIDDIRKNRNFAYVTADFKPTEAQKADGIEWLKRHPVGADALIEELQNLPVATAEESAAFEQVRASARGQNAKTAEGEVAQAGGGNRRKKKEKPAEAGEVQNPPAADGDSLLS
plants symptomatic for greening ([4]; 4 weeks connected to dodder): neither of the two | plants PCR positive for greening ([4]; nested PCR): neither were PCR positive | HR symptoms elicited by X. pelargonii [5]: abolished | symptom development of bacterial wilt ([6]; syringe infiltration and soil inoculation, 32° C.): failed to progress past the leaf area where the pathogen was directly infiltrated; also recorded: No symptom development, other than that which initially developed in, and stayed restricted to, the region of inoculation | detected R. solanacearum cells ([6]; twelve weeks after inoculation): no detected R. solanacearum cells | number of survivors/total tested [7, 16]: 10/15 | per cent survivors [7, 16]: (63%) | number of survivors/total tested [7, 17]: 9/20 | per cent survivors [7, 17]: (45%) | number of survivors/total tested ([7]; Exp. 3, seeded (T1), inoculum 2 × 10^8 cfu/ml): 0/21 | attachment to LPS [8]: attached to the degraded LPS of all species tested | activity of expression clone (growth in presence of berberine chloride) (E. coli ER2566 [3]): Active | detrimental effect on tobacco plants [9]: not detrimental | detrimental effect on rice plants [10]: not detrimental | degradation of LPS [11]: enzymatically degrades LPS | resistance status to X. pelargonii infection ([12]; transgenic geranium Avenida): immune | X. pelargonii cells in cut out leaf region ([12]; transgenic geranium Avenida leaf, four weeks after inoculation): no detected X. pelargonii cells | symptoms of geranium blight ([12]; transgenic geranium Avenida, 32° C.): no evidence of symptoms | living X. pelargonii cells recovered ([12]; transgenic geranium Avenida, after five days following inoculation): no living X. pelargonii cells were recovered | drop in the number of colony forming units vs. control leaves (X. pelargonii): 100 × | pathogenic symptoms caused by X. pelargonii (X. pelargonii): greatly reduced | bacterial stasis induced by expression (E. coli ER2566 [13]): clearly induced | HR symptoms elicited by R. solanacearum (R. solanacearum): abolished | blue color around ADA410 cells (P3rpoH::lacZ activation) [14]: Blue color slowly developed and intensified | detrimental effect on geranium plants [15]: not detrimental

B3: BombOrf9: Phage 13 ORF 9 from Xanthomonas campestris pv. pelargonii, SEQ ID No. 13 (protein, listed as Xanthomonas campestris)
chain: MVVVAQGTVPAKVHPQLTNLTALFADAVGLFLDVSDKVADLLVRFADVEAQGAELLLDLAHLAVPASVVHPTHAGQDQTVPAASDILHGVLEGQPVALVVNQRALRAAQLNPLLALRLDVEAVADQDAEGGAVAHAHAGDQLAVEQKLQILLERFGHDALAGHRRVEPIAYLVDVRSWEAGALDADQPRDDTADGDDAHAQRFVRHVERDGFGSGVLHPSQVRQRLAVLVDDFVEGSRVALDDRANHGEVGVDRVHQ
activity of expression clone (growth in presence of berberine chloride) (E. coli ER2566 [3]): Active | relative strength of activity in E. coli (E. coli ER2566 [3]): Weak activity

B4: D1: BombBC deletion, aa26-169 of BC, SEQ ID 6 (protein)
chain: MPIAVVALARFGSQSTTTTKAAADALGTTVGKIDDIRKNRNFAYVTADFKPTEAQKADGIEWLKRHPVGADALIEELQNLPVATAEESAAFEQVRASARGQNAKTAEGEVAQAGGGNRRKKKEKPAEAGEVQNPPAADGDSLLS
modifications: mutant D1 predicted amino acid sequence
bacterial stasis induced by expression (E. coli ER2566 [13]): clearly induced | activity of expression clone (growth in presence of berberine chloride) (E. coli ER2566 [13]; berberine chloride (5 micrograms/ml), 20 h after induction): Active

B5: BombOrfL: Phage 15 ORF L from Xanthomonas campestris pv. pelargonii, SEQ ID No. 15 (protein, listed as Xanthomonas campestris)
chain: MPTVDATPGSITANSYVTVAEANSYFDGSYGRPLWTSASEDEKASLVISASRYLDQMMAWIGAPTNPEQSMWWPCKNAVIGGMTLSQVSIPVKVKIAVFELAYFMLESGAALSFADQTIDSVKVGTIRVEFTKNSTDAGLPTFVEAMLSGFGSPVLYGSNAARSIDLVRA
activity of expression clone (growth in presence of berberine chloride) (E. coli ER2566 [3]): Active
